From patent US20140079638A1 (RAMOT AT TEL AVIV UNIVERSITY, published 2014)
No end group written: not given here.

Molecular target: αvβ3 integrin receptor on human umbilical vein endothelial cells (HUVEC) (human, UniProt P06756 31-1048; P05106 27-788)
Experiment: cell-based or functional assay

Chain of αvβ3 integrin receptor on human umbilical vein endothelial cells (HUVEC) (P06756 31-1048, chain 1 of 2): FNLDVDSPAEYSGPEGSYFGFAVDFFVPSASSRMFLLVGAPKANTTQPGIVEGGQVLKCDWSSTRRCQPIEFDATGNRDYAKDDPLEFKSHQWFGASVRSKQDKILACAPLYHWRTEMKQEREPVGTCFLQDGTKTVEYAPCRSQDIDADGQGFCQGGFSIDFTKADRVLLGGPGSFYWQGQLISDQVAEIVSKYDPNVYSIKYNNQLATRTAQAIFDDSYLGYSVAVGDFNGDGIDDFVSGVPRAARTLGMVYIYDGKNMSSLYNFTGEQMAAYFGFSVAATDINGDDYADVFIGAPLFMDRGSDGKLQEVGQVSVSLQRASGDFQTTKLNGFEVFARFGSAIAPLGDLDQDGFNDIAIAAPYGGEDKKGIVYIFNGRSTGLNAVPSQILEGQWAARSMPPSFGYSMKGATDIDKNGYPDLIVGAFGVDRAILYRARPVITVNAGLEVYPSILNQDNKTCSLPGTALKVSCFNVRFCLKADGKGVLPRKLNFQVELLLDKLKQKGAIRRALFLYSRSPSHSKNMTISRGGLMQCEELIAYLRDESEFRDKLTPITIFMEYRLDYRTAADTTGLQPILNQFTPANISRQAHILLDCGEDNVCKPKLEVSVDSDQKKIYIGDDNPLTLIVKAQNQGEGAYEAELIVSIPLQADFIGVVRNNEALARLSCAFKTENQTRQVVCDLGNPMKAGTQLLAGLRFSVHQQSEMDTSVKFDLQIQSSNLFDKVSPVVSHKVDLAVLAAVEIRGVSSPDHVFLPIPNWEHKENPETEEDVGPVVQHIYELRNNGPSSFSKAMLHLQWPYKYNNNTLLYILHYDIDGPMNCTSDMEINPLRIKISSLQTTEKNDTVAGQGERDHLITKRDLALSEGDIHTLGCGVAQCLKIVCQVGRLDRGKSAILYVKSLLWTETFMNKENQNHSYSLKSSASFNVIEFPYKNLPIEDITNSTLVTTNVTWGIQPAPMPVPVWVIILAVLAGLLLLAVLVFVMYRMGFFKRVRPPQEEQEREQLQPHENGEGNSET
Chain of αvβ3 integrin receptor on human umbilical vein endothelial cells (HUVEC) (P05106 27-788, chain 2 of 2): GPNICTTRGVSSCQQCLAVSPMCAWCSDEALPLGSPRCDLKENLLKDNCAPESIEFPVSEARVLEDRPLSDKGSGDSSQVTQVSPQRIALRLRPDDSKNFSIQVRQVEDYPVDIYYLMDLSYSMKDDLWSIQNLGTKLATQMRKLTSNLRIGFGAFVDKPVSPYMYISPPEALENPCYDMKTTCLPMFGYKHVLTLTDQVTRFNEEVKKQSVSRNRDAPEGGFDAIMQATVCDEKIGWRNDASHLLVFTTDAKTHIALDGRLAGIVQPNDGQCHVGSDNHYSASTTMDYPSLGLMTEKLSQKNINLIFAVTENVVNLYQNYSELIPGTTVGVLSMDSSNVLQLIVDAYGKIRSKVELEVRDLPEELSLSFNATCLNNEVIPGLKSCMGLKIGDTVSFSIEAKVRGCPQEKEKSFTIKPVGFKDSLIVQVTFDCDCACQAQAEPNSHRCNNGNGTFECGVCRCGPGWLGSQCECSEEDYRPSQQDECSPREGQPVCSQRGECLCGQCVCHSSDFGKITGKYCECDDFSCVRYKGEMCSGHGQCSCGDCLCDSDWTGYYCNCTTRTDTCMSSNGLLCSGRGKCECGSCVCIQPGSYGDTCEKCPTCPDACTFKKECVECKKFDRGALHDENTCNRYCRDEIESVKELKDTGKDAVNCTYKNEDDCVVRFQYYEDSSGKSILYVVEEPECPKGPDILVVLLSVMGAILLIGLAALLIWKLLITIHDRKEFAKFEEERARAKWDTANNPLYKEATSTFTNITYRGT

B1: PGA-Paclitaxel-E-[c(RGDfk)2] conjugate (SEQ ID NO:18) having a 2.6 mol % PTX and 5 mol % E-[c(RGDfk)2] loading (peptide)
peptide: RGDFKERGDFK
modifications: not fully specified (residues 4, 5, 10, 11, bridges); also: two cyclic RGDfk rings joined through Glu spacer, paclitaxel ester-linked to PGA, 2.6 mol %
  inhibition of HUVEC adhesion to fibrinogen: ~60%

B2: PGA-Paclitaxel-E-[c(RGDfk)2] conjugate (SEQ ID NO:18) having a 5.5 mol % PTX and 3.9 mol % E-[c(RGDfk)2] loading (peptide)
peptide: RGDFKERGDFK
modifications: not fully specified (residues 4, 5, 10, 11, bridges); also: two cyclic RGDfk rings joined through Glu spacer, paclitaxel ester-linked to PGA, 5.5 mol %
  inhibition of HUVEC adhesion to fibrinogen: ~60%
